US20050208042A1 (GENETICS INSTITUTE, published 2005)

T1: human B7-1 (CD80) expressed on the cell surface (CHO/hB7-1 cells) (human, UniProt P33681 35-288)
T1 construct: whole, on cells; Also used for native B7-1 on human PBL in the MLR; also called rhB7-1
T1 sequence (looked up): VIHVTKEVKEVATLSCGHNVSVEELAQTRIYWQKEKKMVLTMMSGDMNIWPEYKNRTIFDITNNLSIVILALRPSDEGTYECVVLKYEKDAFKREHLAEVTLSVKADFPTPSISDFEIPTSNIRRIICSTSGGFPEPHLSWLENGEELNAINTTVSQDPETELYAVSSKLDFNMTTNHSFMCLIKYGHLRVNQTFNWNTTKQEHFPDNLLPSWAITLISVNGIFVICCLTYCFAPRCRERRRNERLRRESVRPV

T2: human B7-2 (CD86) expressed on the cell surface (CHO/hB7-2 cells) (human, UniProt P42081 24-329)
T2 construct: whole, on cells; Also used for native B7-2 on human PBL in the MLR row under functional; also called rhB7-2
T2 sequence (looked up): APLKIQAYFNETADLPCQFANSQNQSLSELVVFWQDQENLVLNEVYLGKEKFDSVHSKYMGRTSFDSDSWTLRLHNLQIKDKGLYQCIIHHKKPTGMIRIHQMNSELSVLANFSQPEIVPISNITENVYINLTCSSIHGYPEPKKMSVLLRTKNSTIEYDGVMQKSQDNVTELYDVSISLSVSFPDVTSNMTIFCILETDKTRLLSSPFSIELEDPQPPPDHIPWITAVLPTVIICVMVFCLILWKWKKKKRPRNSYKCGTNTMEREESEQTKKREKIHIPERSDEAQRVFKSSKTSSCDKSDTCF

T3: human B7-1Ig (recombinant soluble hB7-1Ig) (human, UniProt P33681 35-242)
T3 construct: extracellular domain; Secreted by CHO cells, purified on protein A, immobilized on the BIACORE chip; not shown: hinge-CH2-CH3 domains of human IgG1 heavy chain
T3 sequence (looked up): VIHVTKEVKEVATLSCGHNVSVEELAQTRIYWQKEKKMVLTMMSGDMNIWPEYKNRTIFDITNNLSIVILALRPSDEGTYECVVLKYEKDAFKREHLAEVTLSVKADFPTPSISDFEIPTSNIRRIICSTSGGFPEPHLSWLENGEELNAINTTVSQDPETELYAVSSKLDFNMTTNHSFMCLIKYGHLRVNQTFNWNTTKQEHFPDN


What was measured:
[1] = target: T1, human B7-1 (CD80) expressed on the cell …; experiment: competitive binding against 125I-murine anti-B7-1 on CHO/hB7-1 cells; humanized anti-B7-1 mAb
Description: (§1) The relative affinities of the murine and humanized anti-B7-1 (1F1) antibodies for the B7-1 antigen were determined by competitive binding assays. Three-fold serial dilutions of the unlabeled murine or humanized anti-B7-1 mAbs were mixed with a fixed amount of radio-labeled murine anti-B7-1 mAb (¹²⁵I-anti-B7-1, 2800 cpm/fmol; 40,000-50,000 cpm/test in PBS containing 2% fetal calf serum). 1×10⁵ CHO/hB7-1 cells expressing hB7-1 on their surface were added subsequently and the mixture (total volume=200 μL) incubated for 2 hrs at 4° C. with gentle shaking. The cell antibody mixture was then transferred to Sarstedt Micro tubes (Part # 72.702) containing 100 μL of 80% dibutyl phthlate-20% olive oil. After centrifugation in a microfuge, the Sarstedt tubes were plunged into dry ice for several minutes. Cell bound ¹²⁵I-labeled mAb was determined by clipping the cell pellet containing tips of each tube into scintillation vials and counting in a gamma counter. Bound and free counts were determined. The bound counts were plotted against the concentration of the cold competitor mAbs.

[2] = target: T1, human B7-1 (CD80) expressed on the cell …; experiment: cell-based or functional assay
[3] = target: T2, human B7-2 (CD86) expressed on the cell …; experiment: 125I direct binding, CHO cells expressing hB7-2 as control for non-specific binding
[4] = target: T1, human B7-1 (CD80) expressed on the cell …; experiment: direct binding of 125I-labeled antibody to CHO/hB7-1 cells, nonspecific binding (CHO cells with hB7-2) subtracted
Description: Binding assays were begun by plating CHO/hB7-1 cells onto 96 well tissue culture plates at 10,000 cells/well in complete medium and the plates incubated at 37° C. for two days. Adherent cells were washed gently with assay buffer (PBS containing nonfat dry milk and sodium azide). Murine and humanized anti-B7-1 mAbs labeled with ¹²⁵I were serially diluted in assay buffer and incubated with the cells overnight at 4° C. to allow biding to reach equilibrium. Unbound labeled antibody was removed from the cells by a series of gentle washings with assay buffer and the bound ¹²⁵I-labeled antibody was detected using a ¹²⁵I scintillant and detector system. Non-specific binding was determined for each dilution of labeled antibody in an identical manner as described above except that the target CHO cells expressed hB7-2 which is not bound by either the murine or humanized anti-B7-1 mAbs.
The mean value of triplicate determinations minus the non-specific binding was calculated and fit to a hyperbolic saturation binding curve using Graphpad Prism software. […] Both murine and humanized anti-B7-1 mAbs recognize cell surface expressed human B7-1.

[5] = target: T1, human B7-1 (CD80) expressed on the cell …; experiment: competition binding on CHO/hB7-1 cells: unlabeled competitor against 125I-murine anti-B7-1 tracer, bound cpm
Description: as §1

[6] = target: T3, human B7-1Ig (recombinant soluble …); experiment: SPR (BIACORE), hB7-1Ig immobilized, bivalent model, mean of three runs
Description: (§2) The BIACORE® biosensor (BIACORE®, Uppsalla, Sweden) was used to determine binding kinetics of murine and humanized anti-B7-1 monoclonal antibodies to human B7-1Ig (hB7-1Ig) protein. Human B7-1Ig was immobilized onto the dextran matrix of a BIACORE® sensor chip. Humanized and murine anti-B7-1 mAbs were tested at 200, 100, 50, and 20 nM on the immobilized hB7-1Ig. Each mAb dilution was tested 4 times per run and a total of three separate runs were performed. Anti-human B7-1Ig binding was measured in real time by Surface Plasmon Resonance (SPR) and global analysis was performed using the bivalent binding model in BIA evaluation software (Version 3.1). For each sample, the association (kₐ) dissociation (kd) and equilibrium dissociation constant (KD) were determined.

[7] = target: T1, human B7-1 (CD80) expressed on the cell …; experiment: competitive binding against 125I-murine anti-B7-1 on CHO/hB7-1 cells; murine anti-B7-1 mAb
Description: as §1

[8] = target: T3, human B7-1Ig (recombinant soluble …); experiment: SPR (BIACORE), hB7-1Ig immobilized
Description: as §2

[9] = target: T1, human B7-1 (CD80) expressed on the cell …; experiment: competitive binding against 125I-humanized 1F1 on CHO cells expressing rhB7-1
Description: (§3) The affinity of the mouse and humanized 1F1 antibodies for the B7-1 antigen was determined by competitive binding with radio-iodinated humanized 1F1 antibody. Three-fold serial dilutions of unlabeled mouse or humanized 1F1 antibodies were mixed with a fixed amount of radio-iodinated humanized 1F1 antibody (40,000-50,000 cpm per test) in PBS containing 2% fetal calf serum, 0.1% sodium azide. 3×10⁴ CHO cells expressing cell surface rhB7-1 were added subsequently and the mixture (in a total volume of 200 μL) was incubated for 2 hr at 4° C. with gentle shaking. The cell-antibody suspension was then transferred to Sarstedt Micro Tubes (part #72.702) containing 100 μL of 80% dibutyl phthalate-20% olive oil. After centrifugation in a microfuge, the Sarstedt tubes were plunged into dry ice for several minutes. Cell-bound ¹²⁵I was determined by clipping the tips of each tube (containing cell pellets) into scintillation vials and counting in a gamma counter. Bound and free counts were determined and the ratio plotted against the concentrations of the cold competitor antibodies according to the method of Berzofsky and Berkower (J. A. Berzofsky and I. J. Berkower, in Fundamental Immunology, W. E. Paul, Raven Press, New York, pp. 595-644 (1984)).

[10] = target: T1, human B7-1 (CD80) expressed on the cell …; experiment: competition binding on CHO cells expressing rhB7-1: unlabeled competitor against 125I-humanized 1F1 tracer, bound/free ratio
Description: as §3

Binder	Kd [1] [nM]	IC50 of inhibition of CD28+ human T cell proliferation stimulated with PMA and CHO/hB7-1 cells [2] [nM]	binding result [3]	EC50 (read off the curve) [4] [nM]	IC50 (read off the curve) [5] [nM]	Kd [6] [nM]	Kd [7] [nM]	fold higher binding affinity than the humanized anti-B7-1 mAb [8] [fold]	Ka [9] [M⁻¹]	IC50 (read off the curve) [10] [nM]
humanized anti-B7-1 mAb (humanized 1F1), isotype not stated in the example (antibody, V domains shown, Same variable regions as m8; also called hu1F1) VH: EVQLVQSGAEVKKPGASVKVSCKPSGFNIKDYYMHWVRQAPGQGLEWIGWIDPENGNTLYDPKFQGKATITADTSTSTAYMELSSLRSEDTAVYYCAREGLFFAYWGQGTLVTVSS VL: DIQMTQSPSSLSASVGDRVTITCSVSSSISSSNLHWYQQKPGKAPKPLIYGTSNLASGVPSRFSGSGSGTDYTLTISSLQPEDVATYYCQQWSSYPLTFGQGTKVEIK	~1	0.11	no binding	~1	~2	2.8	–	–	–	–
murine 1F1 monoclonal antibody (murine anti-human B7-1 mAb) (antibody, V domains shown, Hybridoma mouse antibody with kappa light chain; also called mouse 1F1; murine anti-B7-1) VH: EVHLQQSGAELVRPGALVKLSCKPSGFNIKDYYMHWVKQRPEQGLEWIGWIDPENGNTLYDPKFQGKASITADTSSNTAYLQLSSLTSEDTAVYYCAREGLFFAYWGQGTPVTVSA VL: EIVLTQSPALMAASPGEKVTITCSVSSSISSSNLHWYQQKSETSPKPWIYGTSNLASGVPVRFSGSGSGTSYSLTISSMEAEDAATYYCQQWSSYPLTFGAGTKLELK	–	0.22	no binding	–	~1	0.56	~1	5	~1e+09	~1
